The experiment deals with T1, His-tagged Tau domain IV (AA 355-441 of hTau40) (human, UniProt O02828 317-403 (Capra hircus entry)).
T1 construct: Expressed in E. coli BL21 (DE3) and purified on Ni-NTA; not shown: N-terminal 6xHis tag from pRSET-A vector
Kind of experiment: Western blot of His-tagged tau domains and hTau40. On the procedure: DNA fragments, synthesized using GeneArt® (Invitrogen), which encode each Tau domain with 6×His tagged at the N-terminus were cloned into the pRSET-A expression vector (Invitrogen), were transfected into E. coli BL21 (DE3) (New England Biolabs). The expressions of the His-tagged Tau domains were induced by 0.5 mM IPTG for six hours before bacteria were lysed with lysozyme with sonication. The lysate was boiled for five minutes before being further purified with Ni-NTA Superflow Columns (Qiagen). The eluted His-tagged Tau domains were coated on ELISA plates or loaded on polyacrylamide gel for Western Blot. These sequentially overlapping tau domain polypeptides cover the full length of hTau40 (FIG. 13A).

T1 sequence (O02828 317-403): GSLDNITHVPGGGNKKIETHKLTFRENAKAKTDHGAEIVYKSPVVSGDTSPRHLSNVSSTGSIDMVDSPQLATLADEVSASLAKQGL

B1: Recombinant human antibody NI-105.4A3 (antibody, V domains shown)
VH: QVQLVESGGGAVQPGGSLRLSCAASGFTFSDYAMHWVRQAPGKGLQWVAVISYEGTYKYYADSVKGRFTISRDNSKNTLNLQMSSLRVEDTAVYFCVKARAFASGQRSTSTVPDYWGQGTLVTVSS
VL: SYELTQPPSVSVSPGQTARITCSGDALPKKYAYWYQQKSGQAPVLVIYEDNKRPSGIPERFSGSSSGTVATLTISGAQVDDEADYYCYSTDISGDLRVFGGGTKLTVL
Consider B1, for which the binding result was “no binding”.
